# Changes are numbered by the printed parent chain.
# B1: Ky311 (antibody, V domains shown)
# VH: QMHLVESGGGVVQPGRSLRLSCVASGFTFNNHGMHWVRQAPGKGLEWVAVIWHDGSNKFYADSVNGRFIVSRDNSKNTLYLHMNSLRAEDTAVYYCARDFFVSGSYNYFDPWGQGTLVTVSS
# VL: EIVLTQSPVTLSLSPGERATLSCRASQSVSNYLAWYQQKPGQAPRLLIYDAANRATGTPARFSGSGSGTDFTLTISSLEPEDFAVYFCQQRSKWFTFGPGTKLDIK
# modifications: peptides N-terminally acetylated and C-terminally amidated
# B2: CL-458015 (antibody, V domains shown)
# VH: QVHLVESGGGVVQPGRSLRLSCAASGFTFSNYGMHWVRQAPGKGLDWVAIIWYDGSNKFYADSVQGRFTISRDNSKNTLYLQMNSLRAEDTAVYYCAKVQDLLGVPSTLGDHYTTDVWGQGTSVTVSS
# VL: DIQMTQSPSTLSASVGDRITITCRASQSINDWLAWYQQKAGKAPKLLIYKASSLESGVPSRFSGSGSGTDFTLTISSLQTDDFAIYYCQQYNHYWTFGQGTKVEIK
# modifications: peptides N-terminally acetylated and C-terminally amidated
# B3: Ky230 (antibody, V domains shown)
# VH: QVQLVESGGGVVQPGRSLRLSCAASGFTFSDYGMHWVRQAPGKGLEWVAIIWHDGSNKYYVDSVKGRFTISRDNSKNTLYLQMNSLRAEDTAVYYCARAASSFGSGFDYWGQGTLVTVSS
# VL: DVVMTQSPLSLPVTLGQPASIFCRSSQSLVYSDGNTYLNWFQRRPGQSPRRLIYKVSDRDSGVPDRFSGSGSGTDFTLQISRVEAEDVGVYYCMQGTHWPPTFGQGTKVEIK
# modifications: peptides N-terminally acetylated and C-terminally amidated
# B4: CL-462788 (antibody, V domains shown)
# VH: QVQLVESGGGVVQPGRSLRLSCAASGFTFRNYGMHWVRQAPGKGLEWVAIIWYDGSYKFYADSVKGRFTISRDNSKNTLYLQMNSLRAEDTAMYYCARDDALELRSFDIWGQGTMVTVSS
# VL: B3 VL with F22S, G34E, N39S, R43Q, V56I, D58N, Q79K, P101R, K108E
# modifications: peptides N-terminally acetylated and C-terminally amidated
# B5: CL-509880 (antibody, V domains shown)
# VH: QVQLVESGGGVVQPGRSLRLSCAASGFTFSNSGMHWVRQAPGKGLEWVAVIWYDGSNKYYADSVKGRFTVTRDNSKNTLYLQMNSLRAEDTAVYYCVRAYYGSGSYHFKYGMDVWGQGTTVTVSS
# VL: not shown
# modifications: peptides N-terminally acetylated and C-terminally amidated
# B6: CL-449759 (antibody, V domains shown)
# VH: QVHLVESGGGVVQPGESQRLSCAASGFTFSNYGMHWVRQAPGKGLEWVALIWYDGSNKFYADSVKGRFTISRDNSKNTLYLHMNSLRAEDTAMYYCAKVPNWNDDKYTMDVWGQGTTVTVTS
# VL: not shown
# modifications: peptides N-terminally acetylated and C-terminally amidated
# B7: CL-512023 (antibody, V domains shown)
# VH: QVQLMESGGGVVQPGRSLRLSCEASGFTFSNSGMHWVRQAPGKGLEWVAIIWYDGSNRYYVDSVKGRFTISRDNSKNTLYLQMNSLRAEDTAVYYCARDGGNRYGYGWFDSWGQGTLVTVSS
# VL: QSVLTQPPSVSGAPGQRVTISCTGSSSNIGAGYDVHWYQQLPGTAPKLLIYGNTNRPSGVPDRFSGSKSGTSASLAITGLQAEDEADYYCQSYDSSLGGSRRVFGGGTKLTVL
# modifications: peptides N-terminally acetylated and C-terminally amidated
# B8: CL-509326 (antibody, V domains shown)
# VH: QVYLVESGEGVVQPGRSLRLSCAASGFTFSNYGMHWVRQAPGKGLEWVAVIWYNGNNKFYADSVKGRFTISRDNSKNTLFLQMNSLRAEDTAVYFCARSGYSRSSYFDYWGQGTLVTVSS
# VL: QSVLTQPPSVSGAPGQRVTISCTGSSSNIGAVYDVHWYQQLPGTAPKLLIYGNTNRPSGVPDRFSGSQSGTSASLAITGLQAEDEADYYCQSYDSSLSGSVFGGGTKLTVL
# modifications: peptides N-terminally acetylated and C-terminally amidated
# B9: CL-445901 (antibody, V domains shown)
# VH: QVQLVESGGGVVQPGRSLRLSCAASGFTFSNYGIHWVRQAPGKGLEWVALIWFNGNNKFYADSVEGRFTVSRDNSKNTLYLQLNSLRAEDTAVYYCARAYYFASGNYMDYWGQGTLVTVSS
# VL: DIQMTQSPSSVSASMGDRVTITCRASQDISSSLAWYQQKPGKAPILLISFASSLHSGVPSRFSGSGSGTDFTLTISSLQPEDFATYSCQQANSFPWTFGQGTRVEVK
# modifications: peptides N-terminally acetylated and C-terminally amidated
# B10: CL-460619 (antibody, V domains shown)
# VH: QVQLVESGGGVVQPGRSLRLSCAASGFTFDYYGMHWVRQAPGKGLEGVAIIWYDGSNKFYADSVKGRFTISRDNSKNTLYLQMTSLRVEDTAVYYCARDGRIGDPGPYFDYWGQGTLVTVSS
# VL: EIVMTQSPATLSVSPGERPTLSCRASQSVSSKLAWYQQKPDQAPRLLIYGASTRATGIPPRFSGSGSGTEFTLTIDSLQSEDFAVYYCQQYHKWWTFGQGTKVEIK
# modifications: peptides N-terminally acetylated and C-terminally amidated
# B11: CL-459075 (antibody, V domains shown)
# VH: QVQLVASGGGVVQPGRSLRLSCAASGFTFSNYGMHWVRQAPGKGLEWVSIIWYDGSKKYYSDSVKGRFTISRDNSKNTLYLQMNSLRAEDTAVYYCARAYGSGSYSDDYYGMDVWGQGTTVTVSS
# VL: DIQMTQSPSTLSASVGDRVTITCRASQSISTWLAWCQQKPGKAPKLLIYKASNLESGVPSRFSGSGSGTEFTLTISSLQPDDFATYYCQQYYSYWTFGQGTKVEIK
# modifications: peptides N-terminally acetylated and C-terminally amidated
# B12: Ky15.5 (antibody, V domains shown)
# VH: QVQMVASGGGVVQPGRSLRLSCAVSGFTFRNFGMHWVRQDPGRGLEWVAIIWYDGSYEFYADSVKGRFTISRDNSKNTLYLQMNSLRAEDTAVYYCARSYGSLTGDETKYGMDVWGQGTTVTVSS
# VL: B11 VL with T31S, C36F, N53S, Y92K, S93N
# modifications: peptides N-terminally acetylated and C-terminally amidated
# B13: CL-508758 (antibody, V domains shown)
# VH: QVQLVESGGGVVQPGRSLRLSCAASGFTFSNYGMHWVRQTPGRDLEWVAIIWYDGSYKFYADSVKGRFSISRDNSKNTLNLEMKSLRVEDTAVYYCAKAYDTSSDDKYGMDVWGQGTTVTVTS
# VL: B11 VL with T31I, C36Y, K50R, N53D, E70G, Y92N
# modifications: peptides N-terminally acetylated and C-terminally amidated
# B14: CL-512275 (antibody, V domains shown)
# VH: QVQLVESGGGVVQPGGSFRLSCETSGFTFSNFGMHWVRQAPGKGLEWVALIWYDGSHKFYADSLTGRFTISRDNSKNTLYLQMNSLRVEDTAVYYCARAHSVTTANDKYGTDVWGQGTTVTVSP
# VL: B11 VL with T31S, C36Y, Q38H, K42R, N53S, V58I, Y87F, Y92N
# modifications: peptides N-terminally acetylated and C-terminally amidated
# B15: CL-511296 (antibody, V domains shown)
# VH: QVQLVASGGGVVQPGRSQRLSCAASGFTFSNYGMHWVRQSPGRGLEWVAIIWYDGSNKFYADSVKGRFTISRDNSRNTLFLQMNSLRAEDTAIYYCAKSEERTSDNYFKYGMDVWGQGTTVIVST
# VL: B11 VL with T31S, C36Y, T74S, S77N, Y87F, Y92T
# modifications: peptides N-terminally acetylated and C-terminally amidated
# B16: CL-512319 (antibody, V domains shown)
# VH: QVQLVESGGGVVQPGRSLRLSCAASGFTFSNFGMHWVRQAPGKGLEWVAVIWYDGSHKFYADSLKGRFTISRDNSKNTLYLQMNNLRAEDTAVYYCARAHPVTTDYDKYGMDVWGQGTTVTVSS
# VL: B11 VL with A13S, T31I, C36I, N53S, Y91F, Q99L
# modifications: peptides N-terminally acetylated and C-terminally amidated
# B17: CL-512011 (antibody, V domains shown)
# VH: B14 VH with G16R, F18L, E23V, N31S, S101A, T121N
# VL: B11 VL with T31S, C36Y, Q38H, K42N, Y87F, Y92N, I105V
# modifications: peptides N-terminally acetylated and C-terminally amidated
# B18: CL-511026 (antibody, V domains shown)
# VH: QVQLVESGGGVVQPGRSLRLSCAASGFTFSNFGMHWVRQAPDRGLEWVSIIWYDGSNKFYADSVKGRFTISRDNSKNTLFLQMDSLRAEDTAVYYCAKAEMRTSDYYNYGMDVWGQGTTVTVSS
# VL: B11 VL with T31S, C36Y, N53S, G68A, S76R, K106N
# modifications: peptides N-terminally acetylated and C-terminally amidated
# B19: CL-513069 (antibody, V domains shown)
# VH: QVQLVESGGGVVQPGKSLRLSCEASGFTFSNYGMHWVRQAPGKGLDWVAIIWHDGGNKFYADSVRGRFTISRDNSKNTLFLQMNSLRAEDSAVYYCARVFDFRDSCYTMDVWGQGTTVTVSS
# VL: B11 VL with T31S, C36Y, N53S, T72S, Y92T, S93R, K102R, K106Q
# modifications: peptides N-terminally acetylated and C-terminally amidated
# B20: CL-447563 (antibody, V domains shown)
# VH: B11 VH with S49A
# VL: B11 VL with C36Y
# modifications: peptides N-terminally acetylated and C-terminally amidated
# B21: CL-512191 (antibody, V domains shown)
# VH: QVQLVESGGGVVQPGRSLRLSCAASGFTFSNYAMHWVRQAPGKGLEWVAVIWYDGSNKYYADSVKGRFTISRDDSKNTLYLQMNSLRAEDTAVYYCARDKGYRYGFNWFDPWGQGTLVTVSS
# VL: QSVLTQPPSVSGAPGQRVTISCTGSSSNIGAGYDVHWYQKLPGTAPKLLIFSNSNRPSGVPDRFSGSKSGTSASLAITGLQAEDEADYYCQSYDSSLSGSRVFGGGTKLTVL
# modifications: peptides N-terminally acetylated and C-terminally amidated
# B22: CL-510427 (antibody, V domains shown)
# VH: QVQLVESGGGVVQPGRSLRLSCAASGFTFSNYGMHWVRQAPGKGLEWVAVIWYDGSKEDYADSVKGRLTISRDNSKNTLYLQMNSLRAEDTAVYYCARDGDSRGWYAFDYWGQGTLVTVSS
# VL: not shown
# modifications: peptides N-terminally acetylated and C-terminally amidated
# B23: CL-510433 (antibody, V domains shown)
# VH: QVQLVESGGGVVQPGRSLRLSCVASGFTFSSYGMHWVRQAPGKGLEWVAVIWYDGSNKYYADSVKGRFTVSRDNSKNTLYLQMNSLRAEDTAVYYCARVYYYGSGSYSPYYYALDVWGHGTTVTVSS
# VL: EIVMTQSPATLSVSPGERATLSCRASQSISSNLAWYQQKPGQAPRLLIYGASIRATGIPARFSGSGSGTEFTLSISILQSEDFAIYYCQQYNNWWTFGQGTKVEIK
# modifications: peptides N-terminally acetylated and C-terminally amidated
# Biological target: PfCSP full length (Plasmodium falciparum (isolate NF54), UniProt P19597)
# Sequence (P19597 20-375): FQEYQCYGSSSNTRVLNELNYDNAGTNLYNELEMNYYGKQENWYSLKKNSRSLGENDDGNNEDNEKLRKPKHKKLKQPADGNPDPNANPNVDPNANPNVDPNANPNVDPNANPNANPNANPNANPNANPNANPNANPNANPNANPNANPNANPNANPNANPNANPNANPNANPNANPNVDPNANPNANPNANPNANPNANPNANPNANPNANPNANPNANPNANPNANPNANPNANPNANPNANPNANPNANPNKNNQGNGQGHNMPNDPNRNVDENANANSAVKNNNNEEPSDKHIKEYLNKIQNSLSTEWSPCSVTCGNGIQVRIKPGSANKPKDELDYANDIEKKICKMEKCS
# Assay: ELISA AUC
row,Binder,binding score
1,B1,2.22
2,B2,2.2
3,B3,2.4
4,B4,2.3
5,B5,1.97
6,B6,2.4
7,B7,2.59
8,B8,2.19
9,B9,2.4
10,B10,2.2
11,B11,2.5
12,B12,2.4
13,B13,2.17
14,B14,2.54
15,B15,2.34
16,B16,2.08
17,B17,2.5
18,B18,2.08
19,B19,2.2
20,B20,2.5
21,B21,2.31
22,B22,2.39
23,B23,1.76

# — article PMC10720262 (2023)
